This is an account of results in publication PMC5458116.

This data set concerns MBP-ZnF4 (ZnF_1012 fused to GCN4-p-LI coiled coil) (synthetic construct). The experiment in a line: EMSA. As to conditions: 5 nM DNA, 5 nM protein, 5 mM Tris-HCl pH 8.5, 210 mM NaCl, 4.8% glycerol, 0.05% Tween 20, 8 mg/l BSA, 30 min, room temperature, 5% native PAGE in 0.5x Tris-borate. (In general: In EMSA bound probe runs differently from free probe, usually more slowly.)

Regarding “CcrM-methylated 152 bp PCR fragment with 2 ZnF binding sites”, for the setting “adenine-N6 methylated, N6-methyladenine at GANTC sites (CcrM in vitro, both strands)”, the binding signal (fold weaker than unmethylated DNA (N1)) is 70. Substance “unmethylated 152 bp PCR fragment with 2 ZnF binding sites” registered a binding signal (fold preference over methylated DNA (N2)) (unlabelled competitors added) of 70.
